# Test results from the supplement of paper PMC7877785.
# ± gives the uncertainty stated by the source.
# Test: self-splicing fitness, log relative to wild type (ln ratio); higher = more splicing; Tetrahymena group I intron in knt gene, E. coli kanamycin selection, DiMSum; sequences stand for … in CUCUCU…GGAGGGAAAAGUUAUCAGGCAUGCACCUGGUAGCUAGUCUUUAAACCAAUAGAUUGCAUCGGUUUAAAAGGCAAGACCGUCAAAUUGCGGGAAAGGGGUCAACAGCCGUUCAGUACCAAGUCUCAGGGGAAACUUUGAGAUGGCCUUGCAAAGGGUAUGGUAAUAAGCUGACGGACAUGGUCCUAACCACGCAGCCAAGUCCUAAGUCAACAGAUCUUCUGUUGAUAUGGAUGCAGUUCACAGACUAAAUGUCGGUCGGGGAAGAUGUAUUCUUCUCAUAAGAUAUAGUCGGACCUCUCCUUAAUGGGAGCUAGCGGAUGAAGUGAUGCAACACUGGAGCCGCUGGGAACUAAUUUGUAUGCGAAAGUAUAUUGAUUAGUUUUGGAGUACUCGUGGUCG
# Procedure, shortened: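 Colonies from six replicate transformations of E. coli BL21(DE3) were pooled and amplicon-sequenced on an Illumina HiSeq 2500. The library placed an intron with all eight P1ex-region nucleotides randomised inside the knt kanamycin-resistance gene on pET-22b(+), and cells grew overnight at 37°C or 30°C on LB agar with or without 25 μg/mL kanamycin (plus 100 μg/mL carbenicillin, 50 μM IPTG, 0.2% rhamnose). Fitness is the DiMSum error-weighted combination of wild-type-normalised replicate fold changes, kanamycin versus none.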
Sequence,self-splicing fitness (ln) (30 °C),self-splicing fitness (ln) (37 °C)
GCUCAGCAAUAUUACGACAG,-3.53 ± 0.21,-2.28 ± 0.22
GCUCAGCAAUAUUACGACUC,-0.0981 ± 0.14,0.646 ± 0.14
GCUCAGCAAUAUUACGAGCA,-2.63 ± 0.16,-1.09 ± 0.11
GCUCAGCAAUAUUACGAUCU,-0.418 ± 0.094,-0.185 ± 0.099
GCUCAGCAAUAUUACGCGGA,-2.01 ± 0.26,-2.63 ± 0.28
GCUCAGCAAUAUUACGCUCA,-1.59 ± 0.11,-0.171 ± 0.11
GCUCAGCAAUAUUACGGAUA,-1.34 ± 0.12,-0.254 ± 0.1
GCUCAGCAAUAUUACGGAUG,-1.76 ± 0.094,-1.12 ± 0.12
GCUCAGCAAUAUUACGGCGG,-3.09 ± 0.29,-1.46 ± 0.29
GCUCAGCAAUAUUACGUAGG,0.139 ± 0.052,0.32 ± 0.076
GCUCAGCAAUAUUACGUCCG,-1.49 ± 0.14,-1.13 ± 0.18
GCUCAGCAAUAUUACGUCCU,-1.16 ± 0.11,-0.818 ± 0.14
GCUCAGCAAUAUUACGUGAA,-0.113 ± 0.063,0.231 ± 0.077
GCUCAGCAAUAUUACGUGAU,-0.424 ± 0.072,-0.373 ± 0.078
GCUCAGCAAUAUUACGUUGA,-3.15 ± 0.18,-2.42 ± 0.2
GCUGAGCAAUAUUACGACUU,-1.64 ± 0.14,0.471 ± 0.14
GCUGAGCAAUAUUACGAGAC,-3.06 ± 0.36,0.142 ± 0.23
GCUGAGCAAUAUUACGAUCU,-1.69 ± 0.094,-1.05 ± 0.1
GCUGAGCAAUAUUACGAUGG,-2.25 ± 0.17,-0.805 ± 0.12
GCUGAGCAAUAUUACGAUGU,-2.49 ± 0.1,-0.739 ± 0.12
GCUGAGCAAUAUUACGAUUG,-4.26 ± 0.32,-3.02 ± 0.22
GCUGAGCAAUAUUACGCCGG,-1.99 ± 0.36,–

Sequence,self-splicing fitness (ln) (30 °C),self-splicing fitness (ln) (37 °C)
GCUGAGCAAUAUUACGCCUU,-1.98 ± 0.31,-1.48 ± 0.44
GCUGAGCAAUAUUACGCGCG,-0.818 ± 0.16,-0.503 ± 0.19
GCUGAGCAAUAUUACGCGCU,-3.05 ± 0.31,-1.53 ± 0.36
GCUGAGCAAUAUUACGCUCA,–,-2.75 ± 0.48
GCUGAGCAAUAUUACGCUUG,-3.25 ± 0.29,-1.57 ± 0.29
GCUGAGCAAUAUUACGGAAG,-2.41 ± 0.24,-0.395 ± 0.17
GCUGAGCAAUAUUACGGAGC,-3.49 ± 0.18,-1.7 ± 0.16
GCUGAGCAAUAUUACGGAGG,-3.67 ± 0.38,-1.14 ± 0.38
GCUGAGCAAUAUUACGGCUA,-2.46 ± 0.19,-1.66 ± 0.19
GCUGAGCAAUAUUACGGGGU,–,-2.36 ± 0.28
GCUGAGCAAUAUUACGGUGA,-1.35 ± 0.17,-0.217 ± 0.17
GCUGAGCAAUAUUACGUCGU,-2.05 ± 0.097,-1.52 ± 0.12
GCUGAGCAAUAUUACGUGCC,-3.37 ± 0.34,–
GCUGAGCAAUAUUACGUUAU,-2.96 ± 0.25,-2.33 ± 0.28
GCUGAGCAAUAUUACGUUGA,-2.57 ± 0.22,-2.61 ± 0.22
GCUUAGCAAUAUUACGACAA,-1.02 ± 0.14,-0.462 ± 0.19
GCUUAGCAAUAUUACGACGC,-0.0232 ± 0.13,-0.351 ± 0.16
GCUUAGCAAUAUUACGAGCA,-2.24 ± 0.14,-0.963 ± 0.13
GCUUAGCAAUAUUACGAGGG,-1.83 ± 0.11,-1.36 ± 0.11
GCUUAGCAAUAUUACGCAUC,-1.04 ± 0.069,-0.56 ± 0.091
GCUUAGCAAUAUUACGCAUU,-0.542 ± 0.095,-0.78 ± 0.12
